Assays:
[1] = NMDA mouse study: in-house CNP36-Fc ELISA of ocular (whole globe) and serum samples
Method: Animals in Groups 3-6 had terminal blood collected on Day 7. IBMX was used during blood collection to inhibit phosphodiesterase activity. […] Briefly, each syringe for cardiac puncture was pre-rinsed with a stock solution of 10 mM IBMX prior to drawing blood. All mice were sedated to a deep plane of sedation under isoflurane and euthanized via exsanguination. After each syringe was pre-rinsed with 10 mM IBMX, a 25 G needle was inserted into the heart and the animal was exsanguinated and euthanized, and blood was collected. The volume of blood collected was noted on the paperwork and the appropriate volume of IBMX was added into a 1.5 mL RNAse/DNAse-free microfuge tube. […]
Bioanalytical work and the accompanying analyses were performed at the conclusion of the study. […] Left eyes (OS) from all animals (n=8) in each group receiving the different AAV constructs were analyzed. […]
The CNP36 and CNP-Fc36 expression in ocular (whole globes) and serum samples was quantified using the commercial CNP36 ELISA kit and in-house CNP36-Fc ELISA (Example 2), respectively. […] After a 45 min incubation, plates were washed and CNP36-Fc was detected by the addition of 3,3′,5,5′-tetramethylbenzidine (TMB) substrate. The reaction was stopped by the addition of stop solution and the plate was read immediately at 450 nm along with the reference wavelength of 600 nm. […]

[2] = tested on: NIH3T3 cells (cGMP secreted); test: EC50 for CNP-Fc constructs, cGMP ELISA of NIH3T3 supernatant; format: cell-based; details: NIH3T3, 30 minutes, 1.8 mM IBMX, cGMP secreted by the cells; FIG. 25B
Method: EC50 for CNP-Fc described herein were measured by ELISA. 2.5E+05 NIH3T3 cells/well were plated. […] After 30 minutes, supernatant was collected for cGMP determined via ELISA. FIG. 25A illustrates a standard curve of cGMP.

Substance: AMI088: purified fusion protein Fc1-(G4S)4-CNP36 (IgG1 Fc), SEQ ID NO: 133
- CNP36-Fc expression in serum samples ([1]; Day 7 serum): Neither CNP36-Fc nor CNP36 were expressed
- stability of CNP36-Fc in ocular samples ([1]; mouse, in vivo): stable and thus quantifiable
- EC50 values (rank order) [2]: CNP-22 ≡Fc4-CNP36>Aflibercept-Fc4-CNP36>Fc1-CNP36>>Fc4-CNP22

Source: US20250099622A1, “COMPOSITIONS AND METHODS FOR EXPRESSING THERAPEUTICS” (priority 2022, published 2025)
